Our source for the activity values is patent US20220288176.

For one series, the system named is RIG-I (Homo sapiens). To be noted: immunofluorescence co-localization with RIG-I and K63-polyubiquitin in HeLa.
The next series relates to YTHDF2 (Homo sapiens). To be noted: co-localization with RIG-I and YTHDF2 in HeLa.

Like-named read-outs stand apart in the source and are kept apart here.

Take FITC-circFOREIGN: the activity in the series on RIG-I (Homo sapiens) amounted to 85.5%; with YTHDF2 (Homo sapiens) it was 33.8%.
In turn, 10% m6A circFOREIGN yielded an activity with YTHDF2 (Homo sapiens) (10% m6A random) of 65.3%.
